Measured values taken from the DeepSol protein solubility set.

Test: soluble on expression in E. coli; label from the status in PepcDB or PDB records

Sequence	soluble on expression in E. coli
MERHGSELQGEVVFTTTSTANNNVKRAVEYFEDDNQDDALTSTSSGNSTQKESSPFTDFDDVPPPPVAPETPAPAQNRRESASPERQFLDESHLGGIGSPLSQSTRLDETFIEEYSIELDTSGNSRNNISSAASPGPKSPFDDDFTDTAAPVAPPPAPTKAAEEYRRQPHQNPFDEEEEEESQFGGGTLSGRDPFDEDSGNSNENQLREKKLHKKEQLAHRLSSSSEEIVEASIHEDEPIVMAQIPEEKPKPKAIPAFDNAYDADFDNSPPLHHYSAVHLETGLSPLEEAQRALRANRARHKPSNVSLAEEAKLAARQRYSNASDIRREEEEEVVEEDPAVVVPVLRKDLEVEEAPKSVRPPRYRKSREIEEPVVVDRFVEEEVDEKEDIDAIFEKYRKVRKDIFEKNGVENLKNLNFFRTSVSADPKSHTPILMADEYKEPQKQVPAPVVVAQESPILKRRNSLVPSRISGRQSTRRSVTSVRSMRGKRKTRAIPEFFDLTRHQNIRLRAPATKKKRISLHRVEDTEAVVELLNGQKVEVACRSDVISRDVFSLIVQNMNINEHVFFGLSFLRDGEHYFIEDHQRLEKFAPSGWKSVARVGVKVPYVLHLRFKFYPQILDFIKTDVTMNELYLQCRRDVLEERIQPKRDAAFELAALALQAEFGNRPPPVITDYFDIQHYLPKKYSSFEDQSRLKNILAELHGHYAGTRISEAKHKYIQICQRHPDFGAHVHRVFRTKPTSAHGASPFDPDTGSSLWIGIMPRGISIYEQQGGAREVIAEHVWPQTQTLQFDKKRFVIVAVGAHDEQIESTFYTDHHSKSSYFVRFAASQHRWMMKMRQWKSTLRHENTIQAMPDVIVEGQTIPPAPIRQGLEESPPSTPLLASADQIFAKMSVSQEKPAANRPAELPPPAPSSKFAAQYDTVDEGIVCDSQAENFERVDSTDNGNVTPRGMQFDILLVKDPANGLGLTLVDGNLNGVPGVYVKLVADNGAGMKAIKPKWDILTPCDSTQIFASQNQIFPSVSAEMLASAGRKKSFTSSSGDLLNAPNRTNGQSRTPPAPRKAANRRQRAVSDFGAIGDALPTLDGDNLINIKAISGLHLDESDEEKGEYRLPTTSMYAFDRDDDLQASIKESKKPAPEPKSGELRKYRYARRSNLEIAEEIEEEAVESSDDDGQIDEGKRVIDVELDRNENGSLGVQIASLSGRVCIKQLTSEPAISHPDIRVGDVLLYVNGIAVEGKVHQEVVAMLRGGGDRVVLGVQRPPPAYSDQHHASSTSASAPLISVMLLKKPMATLGLSLAKRTMSDGIFIRNIAQDSAASSEGTLRVGDRLVSLDGEPVDGFTPATILEKLKLVQGPVQITVTREQTA	not soluble
MSLSREPQTYLAQRFDPDALGQPALALQLEARHNDTEVPVHRHRKGQLVVACRGGITCTVPDGLWMVPAGFGVWIPGGIAHSNRVTANGKVCFLFVEPGAARLPSDCCTLALSPLVLELILHLSAQPQDYPHDGPLARLAGVLLELLEQAPTEQLYLPLPDNRGLRRIADELTRAPGDRASMAEWARRVAMSERSLARMVRRETGMTFGQWRQQLQIIIALQQLSAGVSVQRTAEILGYESVSSFIGMFRKALGSPPARYVRDSMEGGSHHHHHH	soluble
MNTMLFSPYTIRGLTLKNRIVMSPMCMYSCDTKDGAVRTWHKIHYPARAVGQVGLIIVEATGVTPQGRISERDLGIWSDDHIAGLRELVGLVKEHGAAIGIQLAHAGRKSQVPGEIIAPSAVPFDDSSPTPKEMTKADIEETVQAFQNGARRAKEAGFDVIEIHAAHGYLINEFLSPLSNRRQDEYGGSPENRYRFLGEVIDAVREVWDGPLFVRISASDYHPDGLTAKDYVPYAKRMKEQGVDLVDVSSGAIVPARMNVYPGYQVPFAELIRREADIPTGAVGLITSGWQAEEILQNGRADLVFLGRELLRNPYWPYAAARELGAKISAPVQYERGWRF	soluble
MIRIAYVSTYPPRRCGLATFTEHLRQSIDGVRGPSDGDRVIVLYNESDGDDAYRNDPAYWPLPAQNRAAYAEMAKRVNESDIDVVLLQHEFGIFGGEAGEYILDFIAALNKPLVTTFHTVFADPPLPYRPIQGKIAAASDAIIVMNRQAIPYLVKAFGLPEEKIVYIPHGAPGPSSENRDSLRRRLGFSGRKVMLTFGLLSRGKGIESVLAALPGVVRKVPEALYVIAGQTHPEVKKREGEAYREELKSLIHRLGLEHHVHMEDRYFSEEELIDYLTACDLYVTPYPGMQQITSGTLAYAVGVGRPVVSTPYEHARDLLRGCEELLLPYGDTTAWEERLGQLLADEAALKRWEEKVRQIGANTHWPRVGEQHVALFARMCAAKRGEVKTIGTVSH	not soluble
MDPLVSFFDGMAQASWLRPVHDRLKKGTGSWANRAVLDVGCGTGRLLARGVHEAAHLAGVDLSKQMVLATEERLHEHKQCGRLTVVQGDAYDLPFADESFDVCLSTCVMFLLPEPERGMKEMIRVLNGAGVIGMLNPTNKMNHAAAKAYCKKSGITGFEEKTLLQWSNVSTRRHRYTAEQLTHFFKQHGAWVVTHELVLDGLAVVTVASWNKLEHHHHHH	not soluble
MSLSRVRLVIAQCTVDYIGRLTAHLPSARRLLLFKADGSVSVHADDRAYKPLNWMSPPCWLTEESGGQAPVWVVENKAGEQLRITIEGIEHDSSHELGVDPGLVKDGVEAHLQALLAEHIQLLGEGYTLVRREYMTAIGPVDLLCSDERGGSVAVEIKRRGEIDGVEQLTRYLELLNRDSVLAPVKGVFAAQQIKPQARILATDRGIRCLTLDYDTMRGMDSGEYRLFEGHHHHHH	soluble
EQAEAQLAELDLLASMFPGENELIVNDQLAVAELKDCIEKKTMEGRSSKVYFTINMNLDVSDEKMAMFSLACILPFKYPAVLPEITVRSVLLSRSQQTQLNTDLTAFLQKHCHGDVCILNATEWVREHASGYVSRDTSS	soluble
MRRQAEAYKAQLAAMVESSDDAIIVKDLNAIITSWNAGAERIFGYQASEITGSSILALIPPERHEEEKGIMSLVKSGNRVDHFETMWWGKGKKPIDVSVTTSAVKDSDGNIVGISQIARDLEHHHHHH	not soluble
MAGQLTFKRELEKVFEKELKKRIERIGKTPLSPLSLILFTRIAELSAIENGYIRPTEYEMREIFAARTTYSEGLLSTLKDIIYSHFLRSNLGEHLEDFIYTLQRIEDIQSKIDELILREMREVSLRKVYHELLRFLLDMLCDKDMVRFD	not soluble
MIWIVGSGTCRGQTTERAKEIIERAEVIYGSRRALELAGVVDDSRARILRSFKGDEIRRIMEEGREREVAVISTGDPMVAGLGRVLREIAEDVEIKIEPAISSVQVALARLKVDLSEVAVVDCHAKDFDAELTELLKYRHLLILADSHFPLERLGKRRVVLLENLCMEGERIREGNADSIELESDYTIIFVEREVME	soluble
SPLPDTMFCAQQIHIPPELPDILKQFTKAAIRTQPADVLQWSAGYFSALSRGDPLPVKDRIEMPVATQKTDTGLTQGLLKVLHKQCSHKQYVELADLEKKWKNLCLPVEKLRTILELDPCEDKIEWIKFLALGCSSLGRTLNTAMKNVCEILTSDPEGGPARIPFETFAYVYQYLSGLDPELPAVETENYLTSLRLMSESRKNGMIGLSDFFVGKKII	soluble
MPTQFIRNRSAFPQGTNNDIDDFQYQNDFSSSSHQLPSTASGYSEHSSHQNFQNHSPPPGKATTDPLAGALLGLSDVITKSLISHPCGVLRRQCQVHQFAGSLHLTPVTLIPVICNSVAKQGIQTFWKGAIGSSVLWGLTNVTEIVLGDLMGLPRTFVVNGSAEKYWKHIVLKGVTFVTMTPFYISSFIETVRSESGIGGEDNKILDVLVKGVDRMRYFLTSGRDPSRRFSIIHLAIPTAGFQVGHYMLQTALYHQFFRMAKRYVNRKSPAEKTTYHDFLPQMFAQTSSMVLTDLILYPFETIVHRMYIQGTRTLIDNMDTGLSAVSMTVKYSGYFDCVRQVLETEGFWALYAGVGAVLLEYSLHQGLQQLVRACFDRGSELLRKATQGHPVVQSSQITPPISAKSSFNGPISNSFPSAGAALLSPMSTPRKHSTPPKDPTEFPTFGETVSQIGSPYQMPDRPNVFGSPPNRTRATHDSTQSLPPLQLNIRPSSGDPFSG	not soluble
MADMKNKYDVKRIIPDELSESLDIFLKNYSETGLSDYNTYLFYGFILKSYKLPRENRYSIKLLVKELQNRGLKVTLIINIYYHALNCLALNDGLKIYGEDFLI	not soluble
MAHHHHHHMLLVGFKPCEIVFLVDTLLGSGVSRLPQLFSFFFGGGVHSCARQRKSRKGFAPPNWHPLPRPRRLTAFPYHSQVVAHKRVVRRLLTINNLVFNCCGNLFLPICTLHPKFPFTNDLSQYVVTCEFPPLQLHFSTQAPKNCFRKQLDLVLCSINVAVDVFHPALLRTFRWIC	soluble
MLNADLKQQLKQLLELMEGNVEFVASLGSDDKSKELKDLLTEITDMSPRLSLSEKSLKRTPSFSVNRPGEETGVTFAGIPLGHEFNSLVLAILQVSGRAPKEKQSIIDQIKKLEGSFHFETFISLTCQKCPDVVQALNLMSVINPNITHSMIDGAVFREESENIMAVPAVFLNGEEFGNGRMTIQDILSKLGSTADASEFENKEPYDVLIVGGGPASGSAAIYTARKGLRTGIVADRIGGQVNDTAGIENFITVKETTGSEFSSNLAAHIDQYDIDAMTGIRATDIEKTDEAIKVTLENGAVLESKTVIIATGAGWRKLNIPGEEQLINKGVAFCPHCDGPLFENKDVAVIGGGNSGVEAAIDLAGIVNHVTLFEFASELKADNVLQDRLRSLSNVDIKTNAKTTEVVGEDHVTGIRYEDMNTGEEHLLNLDGIFVQIGLLPNTSWLNDAVELNERGEIVIDRNNNTNVPGIFAAGDVTDQKNKQIIISMGAGANAALNAFDYIIRN	not soluble
MKRVDSVISLIYSLSKSEKKHFSLQVIKDKEEKDYLVIYDIIIKSKQPNGNTVKEEFYRRKPNGSFEVSIQYLYEKLTDTLLTLRKKKDIYYDLLNNLCKARMLYERSLFEECFEILSNTIEQAQFYENNEILTIALKLELEYLLRLNFPNMTEQELFHKHFIQNEALKKIRKITEQSSLHNLLKYRLSHIGSIRTVKQKQDMNDLMVNELYIAASSDSEGNFELTRNHKLFQANYLMGAGDYRAALNSYKELDSLFEQNQQFWSNPPIYYLSVLEGVLGSLRSVSNYDEIPYFLDKLRKLISDSTSLEFKVNATCLLFQYELFPYLDKGDFSKCTQLMADYQEILYDKEAWLGPIRKSELLLYTTLVHIGNQEYKTAKKYISNAIIDHNIKYLPLMRTIRLVRLIVFYEVQEHELIQYESRSITRSLSSPKEQTFKTERIILWFLNKRNIPILKKDREAFWEKLSPEIHELYNNKYESQLLRLFDFTAWMESKIRKEKLSEVLRARASAKEC	not soluble
MMGSSSQELQTALTDVSKTCHHLWEENKDLQGRFVNELGELQRLQMVIAQLEQQQRLENVFTVKQQMTELQKRAATLYEHLTQKRNDIVIKLNDGTNFATMLQTQLIGEKLFSWKNAQKLAQIGMPFDNREQLLDEIQIEFEFLADQNWQLNMFSCWMLDLLRRAPQLNDGLAQATIGKLTAITEQLNKLLFMLVSQSFIVSVQPEPVLKTQHKFVTEVRLLIGDKLGIRQHLVNTNVSVKIIAEDEAKQLSVDYDAHKEIRNNKTVGTISNDFEKLTMNERGHLAAKFNNSKLTRIAHRKPPPKGASDLKCAASMQAATDQKYALLFFITPFQMGNLSKEEQFDVWTLSLPIMVTVHGSQDCDAQVAILWHRAFASISRNPNTTDVTAVTWDNLAIMLRNKFSLFTGARRPLSDSDLAYLSEKMLMPNVADQKPITFHRFAKQAMRDDLPFSFWEWFFSIMQLIKQKLLKFWDEGWCIGFISKNDASQSMMMCQHSSFLLRFSDSQTGAVSIGFVCEEADGQKIPFHLAPFTIKDLDQLSLASRIASCPQLKDIRYMYPAIDKEEMLRFFESEERHRVGGGDSPTGYIQSEIVMVAKTNGNFRRMSNAPSMFGADSPSPLSVQSKLDWSPGEVHQNHMMEMSDELGQILTVSDMSGDVETLLGPAFKNNITNYNPHDGNHQHNLHFVDMSQQGMMQQHHNQFYPS	not soluble
